Measurements: PMC7481795 (2020)

Molecular target: acid alpha-glucosidase (GAA phosphodiester) (Homo sapiens, UniProt P10253)
Experiment: SPR

Kd: ~0.06 µM
B1: CI-MPR domains 1-5 1-726 (protein)
chain: MGAAAGRSPHLGPAPARRPQRSLLLLQLLLLVAAPGSTQAQAAPFPELCSYTWEAVDTKNNVLYKINICGSVDIVQCGPSSAVCMHDLKTRTYHSVGDSVLRSATRSLLEFNTTVSCDQQGTNHRVQSSIAFLCGKTLGTPEFVTATECVHYFEWRTTAACKKDIFKANKEVPCYVFDEELRKHDLNPLIKLSGAYLVDDSDPDTSLFINVCRDIDTLRDPGSQLRACPPGTAACLVRGHQAFDVGQPRDGLKLVRKDRLVLSYVREEAGKLDFCDGHSPAVTITFVCPSERREGTIPKLTAKSNCRYEIEWITEYACHRDYLESKTCSLSGEQQDVSIDLTPLAQSGGSSYISDGKEYLFYLNVCGETEIQFCNKKQAAVCQVKKSDTSQVKAAGRYHNQTLRYSDGDLTLIYFGGDECSSGFQRMSVINFECNKTAGNDGKGTPVFTGEVDCTYFFTWDTEYACVKEKEDLLCGATDGKKRYDLSALVRHAEPEQNWEAVDGSQTETEKKHFFINICHRVLQEGKARGCPEDAAVCAVDKNGSKNLGKFISSPMKEKGNIQLSYSDGDDCGHGKKIKTNITLVCKPGDLESAPVLRTSGEGGCFYEFEWHTAAACVLSKTEGENCTVFDSQAGFSFDLSPLTKKNGAYKVETKKYDFYINVCGPVSVSPCQPDSGACQVAKSDEKTWNLGLSNAKLSYYDGMIQLNYRGGTPYNNERHTPRATL
modifications: GAA N-glycans modified to contain only phosphodiesters
